The source of these data is EP4792821A2 (Beijing Youcare Kechuang Pharmaceutical Technology Co., Ltd., dated 2026).

Changes are numbered by the printed parent chain. *1 amine or outer side, *2 acyl side, *3 side chain or, on linkers, in order; H or OH if unused. Where no end group is shown, it is not given here. Side-chain parts run from the residue outwards. The star is where a group is joined. Succinyl(4-O-cholesteryl) = CC(C)CCC[C@@H](C)[C@H]1CC[C@H]2[C@@H]3CC=C4C[C@@H](OC(=O)CCC(=O)*)CC[C@]4(C)[C@H]3CC[C@]12C; Suc = O=C(CCC(=O)[*:2])[*:1]

To fix the notation:
B1: Compound 22 (peptide)
peptide: DEFDKKKIEEVNKKIEESLKKIEESDKKLEEVEAAAKK
modifications: N-terminal acetyl (Ac-); C-terminal lysine side chain carries cholesteryl hemisuccinate, K(Chol); C-terminal amide (-NH2)
B2: Compound 45 (peptide)
peptide: WDEFDASISQVNEKINQSLEEIRKSDELLHNEAAAKK
modifications: N-terminal acetyl (Ac-); C-terminal lysine side chain carries cholesteryl hemisuccinate, K(Chol); C-terminal amide (-NH2)
B3: Compound 20 (peptide)
peptide: SDEFDKKIEEVNKKIEESLKKIEESDKKLGSGSGK
modifications: N-terminal acetyl (Ac-); C-terminal lysine side chain carries cholesteryl hemisuccinate, K(Chol); C-terminal amide (-NH2)
B4: Compound 44 (peptide)
peptide: WDEFDKKIEEVNKKIEESLKKIEESDKKLHNVEAAAKK
modifications: N-terminal acetyl (Ac-); C-terminal lysine side chain carries cholesteryl hemisuccinate, K(Chol); C-terminal amide (-NH2)
B5: Compound 21 (peptide)
peptide: DEFDKKIEEVNKKIEESLKKIEESDKKLEEVEAAAKK
modifications: N-terminal acetyl (Ac-); C-terminal lysine side chain carries cholesteryl hemisuccinate, K(Chol); C-terminal amide (-NH2)
B6: Compound 15 (peptide)
peptide: DEFDKKKIEEVNKKIEESLKKIEESDKKLEEVGSGSGK
modifications: N-terminal acetyl (Ac-); C-terminal lysine side chain carries cholesteryl hemisuccinate, K(Chol); C-terminal amide (-NH2)
B7: Compound 18 (peptide)
peptide: B6 peptide
modifications: N-terminal acetyl (Ac-); C-terminal lysine side chain carries cholesteryl hemisuccinate, K(Chol); C-terminal amide (-NH2)
B8: Compound 25 (peptide)
peptide: YDELVFDASQVNEKINQSLEKIRKSDELLHNVGSGSGK
modifications: N-terminal acetyl (Ac-); C-terminal lysine side chain carries cholesteryl hemisuccinate, K(Chol); C-terminal amide (-NH2)
B9: Compound 14 (peptide)
peptide: DEFDKKIEEVNKKIEESLKKIEESDKKLEEVNEAAAKK
modifications: N-terminal acetyl (Ac-); C-terminal lysine side chain carries cholesteryl hemisuccinate, K(Chol); C-terminal amide (-NH2)
B10: Compound 17 (peptide)
peptide: DEFDKKIEEVNKKIEESLKKIEESDKKLEAAAKK
modifications: N-terminal acetyl (Ac-); C-terminal lysine side chain carries cholesteryl hemisuccinate, K(Chol); C-terminal amide (-NH2)
B11: Compound 13 (peptide)
peptide: WDEFDKKIEEVNKKIEESLKKIEESDKKLEAAAKK
modifications: N-terminal acetyl (Ac-); C-terminal lysine side chain carries cholesteryl hemisuccinate, K(Chol); C-terminal amide (-NH2)
B12: Compound 16 (peptide)
peptide: B11 peptide with W1S
modifications: N-terminal acetyl (Ac-); C-terminal lysine side chain carries cholesteryl hemisuccinate, K(Chol); C-terminal amide (-NH2)

The target of the first test is F protein of hMPV virus strain A2 (human metapneumovirus (hMPV) A2). Nature of the test: cell-based or functional assay.
Regarding Ac-SDELVNKKIEFDKKINQSLKKIEESDKKKLEAAAKK-NH2 [Compound 51], the “EC50 (nM), plaque reduction, hMPV A2 on Vero cells” value amounted to 18.8 nM.
B1: the “EC50 (nM), plaque reduction, hMPV A2 on Vero cells” value was determined as 88.4 nM.
Same read-out and setting: with B2 the figure was 200 nM.
On the same count and under the same terms, with B3 the figure was 7.47 nM; with B4, 14.6 nM; with B5, 11.2 nM.
Same read-out and setting: with B6 the figure was 17.9 nM.
Turning to B7, the “EC50 (nM), plaque reduction, hMPV A2 on Vero cells” value is 35.9 nM.
Still for that read-out and setting: with Ac-SLEQVNEKINQSLAFIRKSDEINQSDEEVNKSDELLEAAAKK-NH2 [Compound 50] the figure was 13.3 nM; with B8, 86.4 nM; with B9, 18.9 nM.
Same read-out and setting: with B10 the figure was 8.78 nM; with B11, 11.7 nM; with B12, 7.35 nM.

The next test concerns the target F protein of hMPV virus strain B1 (human metapneumovirus (hMPV) B1). Nature of the test: cell-based or functional assay.
On to Ac-SDELVNKKIEFDKKINQSLKKIEESDKKKLEAAAKK-NH2 [Compound 51], for which the “EC50 (nM), plaque reduction, hMPV B1 on Vero cells” value was found to be 3.82 nM.
Take B1: the “EC50 (nM), plaque reduction, hMPV B1 on Vero cells” value was found to be 18 nM.
On to B2, for which the “EC50 (nM), plaque reduction, hMPV B1 on Vero cells” value is 13.1 nM.
With B3, the “EC50 (nM), plaque reduction, hMPV B1 on Vero cells” value is 4.27 nM.
Regarding B4, the “EC50 (nM), plaque reduction, hMPV B1 on Vero cells” value came to 6.6 nM.
Still for that read-out and setting: with B5 the figure was 4.92 nM; with Ac-SLEQVNEKINQSLAFIRKSDEINQSDEEVNKSDELLEAAAKK-NH2 [Compound 50], 5.95 nM.
On the same count and under the same terms, with B8 the figure was 38.1 nM; with B9, 5.36 nM; with B10, 3.61 nM.
For the molecule B11, the “EC50 (nM), plaque reduction, hMPV B1 on Vero cells” value was determined as 6.18 nM.
Same read-out and setting: with B12 the figure was 4.5 nM.

The target in another test is F protein of RSV A long virus strain (Respiratory Syncytial Virus (RSV) A …, UniProt P12568 26-574). Nature of the test: cell-based or functional assay.
Chain of F protein of RSV A long virus strain (P12568 26-574): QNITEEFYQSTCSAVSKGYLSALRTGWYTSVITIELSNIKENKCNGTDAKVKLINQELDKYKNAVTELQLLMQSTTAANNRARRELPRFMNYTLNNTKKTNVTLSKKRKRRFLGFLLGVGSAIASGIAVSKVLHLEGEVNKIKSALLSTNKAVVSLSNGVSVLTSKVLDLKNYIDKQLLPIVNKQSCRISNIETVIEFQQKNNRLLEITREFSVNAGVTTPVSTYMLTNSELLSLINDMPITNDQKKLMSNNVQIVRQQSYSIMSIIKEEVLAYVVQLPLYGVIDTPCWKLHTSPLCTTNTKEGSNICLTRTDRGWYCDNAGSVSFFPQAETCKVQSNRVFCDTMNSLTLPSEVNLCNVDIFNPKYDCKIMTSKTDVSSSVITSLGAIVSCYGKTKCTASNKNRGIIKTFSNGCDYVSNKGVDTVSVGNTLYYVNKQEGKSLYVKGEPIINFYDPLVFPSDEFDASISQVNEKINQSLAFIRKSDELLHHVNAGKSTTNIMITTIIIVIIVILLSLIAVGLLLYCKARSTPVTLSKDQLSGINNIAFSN
Ac-SDELVNKKIEFDKKINQSLKKIEESDKKKLEAAAKK-NH2 [Compound 51]: the “IC50/nM, plaque reduction, RSV A long on HEp-2 cells (Table 2, Cell fusion inhibition activity)” value came out at 9.9 nM.
Same read-out and setting: with B1 the figure was 11.3 nM.
As for B2, the “IC50/nM, plaque reduction, RSV A long on HEp-2 cells (Table 2, Cell fusion inhibition activity)” value stood at 12.2 nM.
Same read-out and setting: with FDASISQVNEKINQSLAFIRKSDELLHNVNAGKSTTEAAAKK (not fully specified; also: modifications not known) [Positive polypeptide 7] the figure was more than 300 nM.
Take B3: the “IC50/nM, plaque reduction, RSV A long on HEp-2 cells (Table 2, Cell fusion inhibition activity)” value was found to be 19.8 nM.
Same read-out and setting: with Ac-ADAFRLEVNDASSKINESIEESLLSLEKLHNVNATA-NH2 [Compound 6] the figure was more than 8000 nM; with B4, 12.4 nM; with B5, 14.6 nM.
Consider B6, for which the “IC50/nM, plaque reduction, RSV A long on HEp-2 cells (Table 2, Cell fusion inhibition activity)” value was 10.4 nM.
Same read-out and setting: with B7 the figure was 19.2 nM; with Ac-SLEQVNEKINQSLAFIRKSDEINQSDEEVNKSDELLEAAAKK-NH2 [Compound 50], 15.1 nM.
For B8, the “IC50/nM, plaque reduction, RSV A long on HEp-2 cells (Table 2, Cell fusion inhibition activity)” value came out at 28.7 nM.
Still for that read-out and setting: with B9 the figure was 9.9 nM.
As to Ac-WDEFDKKIEEVNKKIEESLKKIEESDKKLEEVNKKLEAAAKK(Succinyl(4-O-cholesteryl))-NH2 [Compound 9], the “IC50/nM, plaque reduction, RSV A long on HEp-2 cells (Table 2, Cell fusion inhibition activity)” value amounted to 95.7 nM.
The same measure, in the same setting: with Ac-FDAFIQEINVNEDQSLEQSDELLLELHLLHSLLH-NH2 [Compound 7] the figure was more than 8000 nM; with B10, 17.6 nM; with B11, 13 nM.
B12: the “IC50/nM, plaque reduction, RSV A long on HEp-2 cells (Table 2, Cell fusion inhibition activity)” value was 10.3 nM.
The same measure, in the same setting: with Ac-FAEFNQKINQVNEKIEESLEEIRKSDEELHNVNATT-NH2 [Compound 8] the figure was 3770 nM.

The target of another test is F protein of hPIV Type 3 (hPIV3 C243) (human Parainfluenza Virus type 3 (hPIV3 …)). Description: cell-based or functional assay.
As to Ac-SDELVNKKIEFDKKINQSLKKIEESDKKKLEAAAKK-NH2 [Compound 51], the “EC50 (nM), plaque reduction, hPIV3 C243 on LLC-MK2 cells” value (“EC50 (nM), plaque reduction, hPIV3 C243” below) was determined as 18.8 nM.
The same measure, in the same setting: with B1 the figure was 65.4 nM.
Still for that read-out and setting: with B2 the figure was 36.3 nM.
On to B3, for which the “EC50 (nM), plaque reduction, hPIV3 C243” value was 59.5 nM.
On to B4, for which the “EC50 (nM), plaque reduction, hPIV3 C243” value came out at 27.9 nM.
As to B5, the “EC50 (nM), plaque reduction, hPIV3 C243” value stood at 21.3 nM.
Still for that read-out and setting: with B6 the figure was 20.7 nM; with B7, 50.5 nM; with Ac-SLEQVNEKINQSLAFIRKSDEINQSDEEVNKSDELLEAAAKK-NH2 [Compound 50], 34.8 nM.
On to B8, for which the “EC50 (nM), plaque reduction, hPIV3 C243” value worked out at 29.4 nM.
For B9, the “EC50 (nM), plaque reduction, hPIV3 C243” value was 31.4 nM.
Take B10: the “EC50 (nM), plaque reduction, hPIV3 C243” value was found to be 52.6 nM.
Still for that read-out and setting: with B11 the figure was 35.6 nM; with B12, 59 nM.
